According to US20140335016A1:

Molecular target: amyloid-β 1-42 fibers (fAβ42) (human) (UniProt P05067)
Experiment: cell-based or functional assay

Sequence of amyloid-β 1-42 fibers (fAβ42) (human) (P05067 672-713 limits assumed): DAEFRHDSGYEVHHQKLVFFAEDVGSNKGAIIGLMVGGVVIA

## M13 filamentous bacteriophage, Construct 2 (wild type M13 isolate, GenBank JX412914.1)
  filter trap assay, concentration that reduces aggregates to a similar level: 1.7 nM
